# Publication PMC8563363
# T1: deltaN-STAG1/SCC1(int) (Homo sapiens, UniProt Q8WVM7;O60216 71-1258;281-420)
# T1 sequence 1: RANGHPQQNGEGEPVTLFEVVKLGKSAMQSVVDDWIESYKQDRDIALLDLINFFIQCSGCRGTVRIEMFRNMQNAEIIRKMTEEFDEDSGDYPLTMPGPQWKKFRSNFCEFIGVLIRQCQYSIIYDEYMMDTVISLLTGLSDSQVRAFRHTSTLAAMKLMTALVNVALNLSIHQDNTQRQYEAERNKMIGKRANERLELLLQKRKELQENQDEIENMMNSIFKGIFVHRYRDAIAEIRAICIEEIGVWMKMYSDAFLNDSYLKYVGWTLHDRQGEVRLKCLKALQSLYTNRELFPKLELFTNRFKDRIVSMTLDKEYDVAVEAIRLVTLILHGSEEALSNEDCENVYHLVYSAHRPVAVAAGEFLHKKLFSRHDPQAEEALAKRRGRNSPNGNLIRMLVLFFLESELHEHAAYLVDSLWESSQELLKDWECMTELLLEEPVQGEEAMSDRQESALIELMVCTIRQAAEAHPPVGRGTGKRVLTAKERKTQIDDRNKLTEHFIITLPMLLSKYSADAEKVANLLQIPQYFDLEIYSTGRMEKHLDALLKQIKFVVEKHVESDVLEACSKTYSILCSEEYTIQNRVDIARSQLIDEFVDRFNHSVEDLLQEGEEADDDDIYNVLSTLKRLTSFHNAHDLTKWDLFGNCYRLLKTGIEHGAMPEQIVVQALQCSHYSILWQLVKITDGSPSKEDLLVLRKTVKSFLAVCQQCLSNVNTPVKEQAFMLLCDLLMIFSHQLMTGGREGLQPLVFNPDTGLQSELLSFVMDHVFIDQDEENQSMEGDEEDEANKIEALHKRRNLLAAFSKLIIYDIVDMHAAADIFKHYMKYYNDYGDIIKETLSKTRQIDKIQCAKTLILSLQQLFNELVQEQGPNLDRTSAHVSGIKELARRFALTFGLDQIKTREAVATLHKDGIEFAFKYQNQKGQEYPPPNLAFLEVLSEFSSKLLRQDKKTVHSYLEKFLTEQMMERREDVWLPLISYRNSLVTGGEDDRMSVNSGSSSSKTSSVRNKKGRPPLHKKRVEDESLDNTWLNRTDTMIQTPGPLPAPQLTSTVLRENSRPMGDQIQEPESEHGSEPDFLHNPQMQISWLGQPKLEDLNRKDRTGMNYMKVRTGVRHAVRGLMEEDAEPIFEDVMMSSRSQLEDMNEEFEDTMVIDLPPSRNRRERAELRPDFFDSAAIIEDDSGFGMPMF
# T1 sequence 2: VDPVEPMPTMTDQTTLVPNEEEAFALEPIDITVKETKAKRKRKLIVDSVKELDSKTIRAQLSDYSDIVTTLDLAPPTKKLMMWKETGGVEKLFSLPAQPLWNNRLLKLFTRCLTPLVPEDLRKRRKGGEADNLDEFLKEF
# T2: SMC1 head 4E (Homo sapiens, UniProt Q14683;O60216 1-200+=GGGGG+1030-1233;531-631, K52E;R57E;K59E;R62E;internal_change)
# T2 sequence 1: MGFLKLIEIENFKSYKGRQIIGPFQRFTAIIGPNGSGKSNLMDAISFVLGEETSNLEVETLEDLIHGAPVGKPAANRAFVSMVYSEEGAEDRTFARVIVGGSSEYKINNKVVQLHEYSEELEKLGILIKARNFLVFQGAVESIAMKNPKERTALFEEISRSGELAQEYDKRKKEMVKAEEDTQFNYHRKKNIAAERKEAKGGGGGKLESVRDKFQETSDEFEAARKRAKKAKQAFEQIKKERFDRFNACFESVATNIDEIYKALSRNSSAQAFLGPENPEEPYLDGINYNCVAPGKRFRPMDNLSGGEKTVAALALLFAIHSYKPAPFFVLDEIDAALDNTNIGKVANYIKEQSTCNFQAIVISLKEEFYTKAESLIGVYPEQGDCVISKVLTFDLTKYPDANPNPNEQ
# T2 sequence 2: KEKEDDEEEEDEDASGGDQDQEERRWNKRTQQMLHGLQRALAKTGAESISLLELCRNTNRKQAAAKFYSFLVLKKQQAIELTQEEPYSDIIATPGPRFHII
# T3: SMC3 head (Halo-SMC3HD-SCC1(Nt)) (Homo sapiens, UniProt Q9UQE7 1-251+=GGGGG+956-1216+=[…]+O60216:2-75, internal_change)
# T3 sequence: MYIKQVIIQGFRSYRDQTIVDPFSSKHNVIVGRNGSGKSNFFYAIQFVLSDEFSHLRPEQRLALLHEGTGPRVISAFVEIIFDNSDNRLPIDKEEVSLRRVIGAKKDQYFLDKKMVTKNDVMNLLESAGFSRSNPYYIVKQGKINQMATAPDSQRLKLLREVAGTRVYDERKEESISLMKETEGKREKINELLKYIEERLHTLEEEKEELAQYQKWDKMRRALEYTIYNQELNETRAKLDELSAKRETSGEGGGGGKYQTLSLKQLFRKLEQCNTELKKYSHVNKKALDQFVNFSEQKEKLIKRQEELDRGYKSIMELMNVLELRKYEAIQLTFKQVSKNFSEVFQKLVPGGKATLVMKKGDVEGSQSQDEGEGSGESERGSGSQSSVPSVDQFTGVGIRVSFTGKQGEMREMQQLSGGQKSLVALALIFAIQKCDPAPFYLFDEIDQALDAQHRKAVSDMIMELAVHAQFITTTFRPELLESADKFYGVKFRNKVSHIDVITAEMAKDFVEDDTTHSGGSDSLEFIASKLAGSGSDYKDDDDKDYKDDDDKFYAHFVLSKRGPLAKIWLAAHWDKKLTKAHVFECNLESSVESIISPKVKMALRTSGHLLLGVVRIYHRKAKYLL
# B1: 40 bp dsDNA EMSA probe (dsDNA)
# DNA 1: GCGGGTAATCCAGAGCCAGACGAGCACTACGAACAACTAA
# DNA 2: TTAGTTGTTCGTAGTGCTCGTCTGGCTCTGGATTACCCGC
# Columns and labels:
# Assay in all cases: EMSA
# deltaN-STAG1/SCC1(int) = target: T1, deltaN-STAG1/SCC1(int)
# deltaN-NIPBL2A = deltaN-NIPBL2A (Homo sapiens, UniProt Q6KC79 1-21+1041-2804, R1867A;K1870A;internal_change)
# SMC1 head 4E = target: T2, SMC1 head 4E
# hinge (SMC1-SMC3) = hinge (SMC1-SMC3) (Homo sapiens, UniProt Q9UQE7;Q14683 484-696;461-685)
# hinge (SMC1-SMC3), sequence (Q9UQE7 484-696, chain 1 of 2): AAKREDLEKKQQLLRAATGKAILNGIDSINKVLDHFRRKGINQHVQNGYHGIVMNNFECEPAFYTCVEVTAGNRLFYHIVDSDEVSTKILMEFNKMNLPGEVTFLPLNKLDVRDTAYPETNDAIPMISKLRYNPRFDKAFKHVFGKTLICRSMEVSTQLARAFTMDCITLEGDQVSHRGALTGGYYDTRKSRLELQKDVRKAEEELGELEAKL
# hinge (SMC1-SMC3), sequence (Q14683 461-685, chain 2 of 2): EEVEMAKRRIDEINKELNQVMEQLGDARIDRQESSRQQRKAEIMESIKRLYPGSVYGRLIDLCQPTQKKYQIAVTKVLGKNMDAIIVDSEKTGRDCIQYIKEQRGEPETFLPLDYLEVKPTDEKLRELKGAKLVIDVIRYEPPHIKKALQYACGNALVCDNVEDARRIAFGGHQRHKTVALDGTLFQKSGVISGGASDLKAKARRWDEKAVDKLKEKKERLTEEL
# [1] = target: T3, SMC3 head (Halo-SMC3HD-SCC1(Nt))
binder,measurement,setting,value
B1,binding result,deltaN-STAG1/SCC1(int),binds
same,binding result,deltaN-NIPBL2A,no binding
same,binding result,SMC1 head 4E,no binding
same,binding result,hinge (SMC1-SMC3),binds
same,binding result,[1],binds
